The labels stand for the following.
B1: HDV Ribozyme (parent)
chain: GGCCGGCAUGGUCCCAGCCUCCUCGCUGGCGCCGGCUGGGCAACAUUCCGAGGGGACCGUCCCCUCGGUAAUGGCGAAUGGGACCCA

Variants of B1 are the subject of the series. Description: self-cleavage, relative activity (ratio to wild type); higher = more cleavage; co-transcriptional.
As for GGCCGGCAUGGUCCCAGCCUCCUCGCUGGCGCCGGCUGGGCAACAUUCCGAGGAGACCGUCCCCUCGGUAAUGGCGAAUGGGACCGA [G54A C86G], the self-cleavage is 1.07.
The result for GGCCGGCAGGGUCCCAGCCUCCUCGCUGGCGCGGGCUGGGCAACAUUCCGAGGGGACCGUCCCCUCGGUAAUGGCGAAUGGGACCCA [U9G C33G] reads 0.104; that for GCCCGGCAUGGUCCCAGCCUCCUCGCUGGCGCCGGCUGGGCAAGAUUCCGAGGGGACCGUCCCCUCGGUAAUGGCGAAUGGGACCCA [G2C C44G], 0.0656.
For GGCCGGCAUGGUCCCAGCCUCCUCGCUGGGGCCGGCUGGGCAACAUUCCGAGGGGACCGUCCCCUCGGUAAUGGCGCAUGGGACCCA [C30G A77C] the value was 0.095.
For GGCCGGCAUGGUCCCAGCCUCCUCGCUGGCGCCGGCUGGGCAACAUUCCGAGGCGACCGUCCCUUCGGUAAUGGCGAAUGGGACCCA [G54C C64U] the value was 0.82; for GGCCGGCAUGGUCCCAGCCUCCUCGCUGGAGCCGGCUGGGCAACAUUCCGAGGGGACCAUCCCCUCGGUAAUGGCGAAUGGGACCCA [C30A G59A], 0.561.
With GGCCGGCAUGGUCCCAGCCUCCUCGCGGGCGCCGGUUGGGCAACAUUCCGAGGGGACCGUCCCCUCGGUAAUGGCGAAUGGGACCCA [U27G C36U], the self-cleavage is 0.322.
The result for GGCCGGCAUGGUCCCAGCCUCCUCGCUGGCGCGGGCUGGGCAACAUUCCGAGGGGACCGUCCCCUCGGUUAUGGCGAAUGGGACCCA [C33G A70U] reads 0.383; that for GGCCGGCAUGGUCCCAGCCUCCUCGCUGGCGCCGGCUGGGCAACAUUCCGAGGGGACCGUCCCCUCGGUAAUAGCGAAUGGGACCCU [G73A A87U], 0.803; that for GGCCGGCAUGGUCCCAGCCUCCUCGCUGGCGCCGGCUGGGCAACAUUCCGAGGGGACCGUCCCCUCGGGAAUGGCGAAUGGGCCCCA [U69G A83C], 0.554.
For GGCCGGCAUGGUCCCAGCCUCCUCGCUGGCGCCGGCUGGGCAACAUUCCGAGGGGACCGUCCCCUCGGUAAUCCCGAAUGGGACCCA [G73C G74C], the self-cleavage worked out at 0.133.
For GGCCUGCUUGGUCCCAGCCUCCUCGCUGGCGCCGGCUGGGCAACAUUCCGAGGGGACCGUCCCCUCGGUAAUGGCGAAUGGGACCCA [G5U A8U] the value was 0.208; for AGCCGGCAUGGUCCCAGCCUCCUCGCUGGCGCCGGGUGGGCAACAUUCCGAGGGGACCGUCCCCUCGGUAAUGGCGAAUGGGACCCA [G1A C36G], 0.119; for GGCCGGCAUGGUCCCAGCCUCCUCGCUGGCGCCGGCUGGGCAACAUUCCGAGGGGACCGUCCCCGCGAUAAUGGCGAAUGGGACCCA [U65G G68A], 0.772.
The result for GGCUGGCAUGGUCCCAUCCUCCUCGCUGGCGCCGGCUGGGCAACAUUCCGAGGGGACCGUCCCCUCGGUAAUGGCGAAUGGGACCCA [C4U G17U] reads 0.136.
Consider GGCCGGCAUGGUCCCAGCCUCCUCGCUGGCGCCGGCUGGGCAACAUUCCGAGGGGUCCGUCCCCUCGGUAAUGGCGAAUGGGACCCC [A56U A87C], for which the self-cleavage was 0.963.
The result for GGCCGGCAUAGUCCCAGCCUCCUCGCUGGCGCCGGCUGGGCAACAUCCCGAGGGGACCGUCCCCUCGGUAAUGGCGAAUGGGACCCA [G10A U47C] reads 0.554.
Consider GGCCGGCAUGGUCCCAGCCUCCUCGCUGGCGCCGGCUGGGCAACAUUCCGAGGGGACCGUCCCCUCGGUAAUGGCGAAGGGGACCCC [U79G A87C], for which the self-cleavage was 0.656.
For the variant GGCCGGCAUGGUCCCAGCCUCCUCGCUGACGCCGGCUGGGCAACAUUGCGAGGGGACCGUCCCCUCGGUAAUGGCGAAUGGGACCCA [G29A C48G], the self-cleavage is 0.0875.
For GGCCGGCAUGGUCCCAGCCUCCUCGCUGGCUCCGGCUGGGCAACUUUCCGAGGGGACCGUCCCCUCGGUAAUGGCGAAUGGGACCCA [G31U A45U] the value was 0.175.
For GGCCGGCAUGGUCCCAGCCUCCUCGCUGGCGCCGGCUGGGCAACAUUCCGAGGGGACCGUCCCCUCGGAAAUGGCGAAUGGGACCGA [U69A C86G] the value was 1.09; for GGCCGGCAUGGUCCCAGCCUCCUCGCUGGCGACGGCUGGGCUACAUUCCGAGGGGACCGUCCCCUCGGUAAUGGCGAAUGGGACCCA [C32A A42U], 0.166.
The result for GGCCGGCAUGGUCCCAUCCUCCUCGCUGGCGUCGGCUGGGCAACAUUCCGAGGGGACCGUCCCCUCGGUAAUGGCGAAUGGGACCCA [G17U C32U] reads 0.125; that for GGCCGGCAUGGUCCCAGCCUCCUCGCUGGCGCCGGCUGGGCAACAUUACGAGGGUACCGUCCCCUCGGUAAUGGCGAAUGGGACCCA [C48A G55U], 0.933.
For the variant GGCCGGCAUGGUCCCAGCCUCCUCGCUGGCGUCGGCUGGGCAACACUCCGAGGGGACCGUCCCCUCGGUAAUGGCGAAUGGGACCCA [C32U U46C], the self-cleavage was 0.554.
The result for GGCCGGCAUGGUCCCAGCAUCCUCGCUGGCGCCGGAUGGGCAACAUUCCGAGGGGACCGUCCCCUCGGUAAUGGCGAAUGGGACCCA [C19A C36A] reads 0.119; that for GGCCGGCAUGGUCCCAGCCUCCUCGCUGGCUCCGGCUGGGCAACAUUCCGAGGGGACCGUCCCUUCGGUAAUGGCGAAUGGGACCCA [G31U C64U], 0.475; that for GGCGGGCAUGGUCCCAGCCUCCUCGCUGGCGCCGACUGGGCAACAUUCCGAGGGGACCGUCCCCUCGGUAAUGGCGAAUGGGACCCA [C4G G35A], 0.
The result for GGCCGGCAUGGUCCCAGCCUCCUCGCUGGCGCCGGCUGGGCAACAUUCCGAGGGGACCGUCCCGUCGGUAAUGGCGAAUGGGUCCCA [C64G A83U] reads 0.508; that for GGCCGGCAUGGUCCCAGCCUCCUCGCUGGCGCCGGCUGGUCAACAUUCCGAGGGGACCGUCCCCUCGGUAAUGGCGAAUGGGACCAA [G40U C86A], 0.682.
For GGCCGGCAUGGUCCCAGCCUCCUCGCUGGCGCCGGCUGGCCAACAUUCCGAGGGAACCGUCCCCUCGGUAAUGGCGAAUGGGACCCA [G40C G55A] the value was 0.121; for GGCCGGCAUGGUCCCAGCCUCCUGGCUGGCGCCGGCUGGGCAACAUUACGAGGGGACCGUCCCCUCGGUAAUGGCGAAUGGGACCCA [C24G C48A], 0.0519; for GGCCGGCAUGGUCCCAGCCUCCUCGCUGGCGCCGGCUGGGCAACAUUCCGAGGGGACCGUGCCCUCGGUAAUGGCGACUGGGACCCA [C61G A78C], 0.177.
As to GGCCGGCAUGGUCGCAGCCUCCUCGCUCGCGCCGGCUGGGCAACAUUCCGAGGGGACCGUCCCCUCGGUAAUGGCGAAUGGGACCCA [C14G G28C], the self-cleavage was found to be 0.0415.
With GGCAGGCAUGGUCCCAGCCUUCUCGCUGGCGCCGGCUGGGCAACAUUCCGAGGGGACCGUCCCCUCGGUAAUGGCGAAUGGGACCCA [C4A C21U], the self-cleavage came out at 0.0346.
Take GGCCGGCAUGGUCCCAGCCUCCUCGCUUGCGCCGGCUGCGCAACAUUCCGAGGGGACCGUCCCCUCGGUAAUGGCGAAUGGGACCCA [G28U G39C]: the self-cleavage was determined as 0.125.
Consider GGCCGGCAUGGUCCCAGCCACCUCGCUGGCGCCGGCUGGGCAACAUUCCGAGGGGACCGUCCCCUCGGUAAGGGCGAAUGGGACCCA [U20A U72G], for which the self-cleavage is 0.
For GGCCGCCAUGGUCCCAGCCUCCUCGCUGGCGCCGGCUGGCCAACAUUCCGAGGGGACCGUCCCCUCGGUAAUGGCGAAUGGGACCCA [G6C G40C], the self-cleavage was determined as 0.175.
The result for GGCCGGCAUGGUCCCAGCAUCCUCGCUGGCGCCGGCUGGGCAACAUUCCGAAGGGACCGUCCCCUCGGUAAUGGCGAAUGGGACCCA [C19A G52A] reads 0.0863.
For GGCCGGCAUGGUCCCAGCCUCCUCGCUGGCGCCGGCUGGGCAACAUUCCGAGGGGACAGUCCCCUCGUUAAUGGCGAAUGGGACCCA [C58A G68U] the value was 1.04; for GGCCGGCAUGGUCCCAGCCUCCUCGCUGGCGCCGGCUGGGCAACAUUCCGAGGGGACAGUCCCCUCGGUAAUGCCGAAUGGGACCCA [C58A G74C], 0.324.
For GGCCGGCAUGGUCCCAGCCUCCUCGCCGGCGCCGGCUUGGCAACAUUCCGAGGGGACCGUCCCCUCGGUAAUGGCGAAUGGGACCCA [U27C G38U] the value was 0.131.
Consider GGCCGGCAUGGUCCCAGCCUCCUCGCUGGCGCCGGCUGGGCAACAUUCCGAGGGCACCGUCCCCUCGUUAAUGGCGAAUGGGACCCA [G55C G68U], for which the self-cleavage amounted to 1.08.
On to GGCCGGCAUGGUCCCAGCCUCCUCGCUGGCGCCGGCUGGGCAACAUUCCGAGGGGACCUUCCCCUCGGUAAUGGCGCAUGGGACCCA [G59U A77C], for which the self-cleavage was found to be 0.453.
On to GGCCGGCAUGGUCCCAGACUCCUCGCUGGCGCCGGCUGGGCAACAUUCCGUGGGGACCGUCCCCUCGGUAAUGGCGAAUGGGACCCA [C18A A51U], for which the self-cleavage came out at 0.0378.
For GGCCGACAUGGUCCCAGCCUCCUCGCUGGCGCCGGCUGGGCAACAUUCCGAGGGGACCGUCCCCUCAGUAAUGGCGAAUGGGACCCA [G6A G67A] the value was 0.763; for GGCCGGCAUGGUCCCAGCCCCCUCGCUGGCGCCGGCUGGGCAACAUUCCGAGGGGACCCUCCCCUCGGUAAUGGCGAAUGGGACCCA [U20C G59C], 0.0898.
Regarding GGCCGGCAUGGUCCCAGCCUCAUCGCUGGCGCCGGCUGGGCAACAUUCCGAGGGGACCGUCCCCUCGGUAAUGGCGAAUGGGAUCCA [C22A C84U], the self-cleavage is 0.256.
GGCCGGCAUGGUCCCAGCCUCCUCGCUGGCGCCGGCUGGGCACCAUUCCGAGGGGACCGCCCCCUCGGUAAUGGCGAAUGGGACCCA [A43C U60C]: the self-cleavage was 0.532.
The result for GGCCGGCAUGGUCCCAUCCUCCUCGCUGGCGCCGGCUGGGCAACAUUCCGAGGGGACCGUCCCCUCCGUAAUGGCGAAUGGGACCCA [G17U G67C] reads 0.628; that for GGCCGGCAUGAUCCCAGACUCCUCGCUGGCGCCGGCUGGGCAACAUUCCGAGGGGACCGUCCCCUCGGUAAUGGCGAAUGGGACCCA [G11A C18A], 0.0841; that for GGCCGGCAUGGUCCCAGCCUCCUCGCUGUCGCCGGCAGGGCAACAUUCCGAGGGGACCGUCCCCUCGGUAAUGGCGAAUGGGACCCA [G29U U37A], 0.0898.
For the variant GGCCGGCAUGGUCCCAGCCUCCUCCCUGGCGCCGGCUGGGCAACAUUCCGAGGGGACCGUCCCCUCGGUAAUGGCGUAUGGGACCCA [G25C A77U], the self-cleavage amounted to 0.
The result for GGCCGGCAUGGUCCCAGCGUCCACGCUGGCGCCGGCUGGGCAACAUUCCGAGGGGACCGUCCCCUCGGUAAUGGCGAAUGGGACCCA [C19G U23A] reads 0; that for GGCCGGCAUGGACCCAGCCUCCUCGCUGGCGCCGGCUGGGCAACGUUCCGAGGGGACCGUCCCCUCGGUAAUGGCGAAUGGGACCCA [U12A A45G], 0.277.
For GGCCGGCAUGGUCUCAGCCUCCUCGCAGGCGCCGGCUGGGCAACAUUCCGAGGGGACCGUCCCCUCGGUAAUGGCGAAUGGGACCCA [C14U U27A] the value was 1.03.
Turning to GGCCGGCAUGGUACCAGCCUCCUCGCUGGCGCCGGCUGGGCAACAUUCCGAGGGCACCGUCCCCUCGGUAAUGGCGAAUGGGACCCA [C13A G55C], the self-cleavage is 0.143.
The result for GGCCGGCAUGGUCCCAGCCUCCUCGCUGGCGCCGGCUGGGCAACAUUCCGAGGGGACCGUCCCCGCGGUAAUGGCGAAUAGGACCCA [U65G G80A] reads 0.288; that for GGCCGGCAAGGUCUCAGCCUCCUCGCUGGCGCCGGCUGGGCAACAUUCCGAGGGGACCGUCCCCUCGGUAAUGGCGAAUGGGACCCA [U9A C14U], 1.11; that for GGCCGGCAUGGUCCCAGCCGCCUCGCUGGCGCCGGCUGGGCAUCAUUCCGAGGGGACCGUCCCCUCGGUAAUGGCGAAUGGGACCCA [U20G A43U], 0.107.
For GGCCGGCAUGGUCCCAGCCUACUCGCUGGCGCCGGCUGGGCAACAUUCCGAGGGGACCGUCCCCUCGGUAAUGGCGAAUGGGACCGA [C21A C86G] the value was 0.111.
Consider GGCCGGCAUGGUCCCAGCCUACUCGCUGGCGCCGACUGGGCAACAUUCCGAGGGGACCGUCCCCUCGGUAAUGGCGAAUGGGACCCA [C21A G35A], for which the self-cleavage amounted to 0.0804.
For GGCCGGCAUGGUCCCAGCCUCCUCGCUGGCGCCGGCUGGGAAACAUUCCGAGGGGACCGUCCCCUCGGUAAUGGCGAAUGGGAUCCA [C41A C84U] the value was 0.388.
For GGCCGGCGUGGUCCCAGCCUCCUCGCUGGCGCCGGCUGGGCAACAUUCCGAGGGGACCGUCCCCUCGGUAAUGGCGAAUUGGACCCA [A8G G80U] the value was 0.173.
